Where a chain is given by its changes, count along the chain named.
T1: Cre recombinase (Punavirus P1)
T1 chain: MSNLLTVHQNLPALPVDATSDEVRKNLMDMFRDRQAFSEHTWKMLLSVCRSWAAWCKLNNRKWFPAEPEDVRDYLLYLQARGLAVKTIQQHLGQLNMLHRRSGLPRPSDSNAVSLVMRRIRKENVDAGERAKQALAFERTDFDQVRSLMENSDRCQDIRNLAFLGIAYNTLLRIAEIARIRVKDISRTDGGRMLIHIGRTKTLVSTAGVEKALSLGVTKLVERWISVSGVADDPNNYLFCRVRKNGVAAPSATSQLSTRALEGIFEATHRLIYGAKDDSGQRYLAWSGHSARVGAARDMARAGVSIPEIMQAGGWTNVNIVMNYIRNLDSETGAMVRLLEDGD

B1: LoxPsym-GAT (dsDNA)
DNA 1: ATAACTTCGTATAGATTAATCTATACGAAGTTAT
DNA 2: B1 DNA 1
B2: LoxPsym-TAT (dsDNA)
DNA 1: B1 DNA 1 with G14T, C21A
DNA 2: B1 DNA 1 with G14T, C21A
B3: LoxPsym-TGT (dsDNA)
DNA 1: B1 DNA 1 with G14T, A15G, T20C, C21A
DNA 2: B1 DNA 1 with G14T, A15G, T20C, C21A
B4: LoxPsym-GCT (dsDNA)
DNA 1: B1 DNA 1 with A15C, T20G
DNA 2: B1 DNA 1 with A15C, T20G
B5: LoxPsym-GGT (dsDNA)
DNA 1: B1 DNA 1 with A15G, T20C
DNA 2: B1 DNA 1 with A15G, T20C
B6: LoxPsym-GGA (dsDNA)
DNA 1: B1 DNA 1 with A15G, T16A, A19T, T20C
DNA 2: B1 DNA 1 with A15G, T16A, A19T, T20C
B7: LoxPsym-TTG (dsDNA)
DNA 1: ATAACTTCGTATATTGTACAATATACGAAGTTAT
DNA 2: B7 DNA 1
B8: LoxPsym-CGG (dsDNA)
DNA 1: B7 DNA 1 with T14C, T15G, A20C, A21G
DNA 2: B7 DNA 1 with T14C, T15G, A20C, A21G

Target: T1, Cre recombinase
Test: cell_activity; as above
Source text: Similar to the development of the original LoxPsym site by Hoess et al. (1986 J Cell Biochem), we edited the spacer of the LoxP site to obtain new non-directional recombination sites. In doing so, we focused on altering the first three nucleotides of the spacer (FIG. 2), as it was shown before that changing the nucleotides at position 4 and 5 of the spacer (T and A respectively) prevents recombination (Hoess et al 1986). The last three nucleotides were adapted accordingly to ensure the spacer remained palindromic. As such, we were able to design maximally 63 new potential LoxPsym sites. To test if the Cre enzyme was still able to recombine the new LoxPsym variants, we conducted a fluorescent-based assay in yeast via genomic integration of a fluorescence cassette which was flanked by identical LoxPsym variants at both sites (FIGS. 3A and 3C). Recombination of functional LoxPsym variants enables the deletion of the fluorescence cassette. The fraction of non-fluorescent cells in the population after induction of Cre-mediated recombination, was used to determine the recombination efficiency of the new LoxPsym sites. To verify if this set-up is valid for estimation of the recombination efficiency, the dual-fluorescent-reporter system shown in FIG. 3A was used to assess the frequency of inversion/deletion over time. […] Recombination efficiencies largely altered between different LoxPsym variants (Table 1). 63 new LoxPsym variants were obtained with altering recombination efficiencies ranging from 13% to 89%.

Binder | activity [%]
B1 | 36.9
B2 | 89.3
B3 | 82.4
B4 | 37.2
B5 | 38
B6 | 37.1
B7 | 80.6
B8 | 81.5
